{"source": "paper PMC6156451", "about": "(Frontiers in Molecular Neuroscience, 2018)", "key": {"[1]": {"molecular_target": "myristoylated guanylyl cyclase-activating protein 2 (GCAP-2), bovine (bovine) (UniProt P51177)", "assay": "other fluorescence titration; GCAP-2 mixed with increasing concentrations of peptide in 20 mM HEPES pH 7.5, 20°C; excitation 280 nm, emission 350 nm; calcium not controlled, ~2 uM"}, "[2]": {"molecular_target": "myristoylated guanylyl cyclase-activating protein 2 (GCAP-2), bovine (bovine) (UniProt P51177)", "assay": "SPR; GCAP-2 immobilised by amine coupling on 2D CMD sensor slides; peptides injected at 0.5-40 uM (peptide 3: 5-40 uM); 20 mM HEPES, 0.05% Tween, pH 7.5, 22°C, 30 ul/min; two-state model with equimolar binding; calcium not controlled, ~2 uM"}, "[3]": {"molecular_target": "ROS-GC1 peptide 1 peptide 1 (Bos taurus) (UniProt P55203)", "sequence (P55203 57-1110)": "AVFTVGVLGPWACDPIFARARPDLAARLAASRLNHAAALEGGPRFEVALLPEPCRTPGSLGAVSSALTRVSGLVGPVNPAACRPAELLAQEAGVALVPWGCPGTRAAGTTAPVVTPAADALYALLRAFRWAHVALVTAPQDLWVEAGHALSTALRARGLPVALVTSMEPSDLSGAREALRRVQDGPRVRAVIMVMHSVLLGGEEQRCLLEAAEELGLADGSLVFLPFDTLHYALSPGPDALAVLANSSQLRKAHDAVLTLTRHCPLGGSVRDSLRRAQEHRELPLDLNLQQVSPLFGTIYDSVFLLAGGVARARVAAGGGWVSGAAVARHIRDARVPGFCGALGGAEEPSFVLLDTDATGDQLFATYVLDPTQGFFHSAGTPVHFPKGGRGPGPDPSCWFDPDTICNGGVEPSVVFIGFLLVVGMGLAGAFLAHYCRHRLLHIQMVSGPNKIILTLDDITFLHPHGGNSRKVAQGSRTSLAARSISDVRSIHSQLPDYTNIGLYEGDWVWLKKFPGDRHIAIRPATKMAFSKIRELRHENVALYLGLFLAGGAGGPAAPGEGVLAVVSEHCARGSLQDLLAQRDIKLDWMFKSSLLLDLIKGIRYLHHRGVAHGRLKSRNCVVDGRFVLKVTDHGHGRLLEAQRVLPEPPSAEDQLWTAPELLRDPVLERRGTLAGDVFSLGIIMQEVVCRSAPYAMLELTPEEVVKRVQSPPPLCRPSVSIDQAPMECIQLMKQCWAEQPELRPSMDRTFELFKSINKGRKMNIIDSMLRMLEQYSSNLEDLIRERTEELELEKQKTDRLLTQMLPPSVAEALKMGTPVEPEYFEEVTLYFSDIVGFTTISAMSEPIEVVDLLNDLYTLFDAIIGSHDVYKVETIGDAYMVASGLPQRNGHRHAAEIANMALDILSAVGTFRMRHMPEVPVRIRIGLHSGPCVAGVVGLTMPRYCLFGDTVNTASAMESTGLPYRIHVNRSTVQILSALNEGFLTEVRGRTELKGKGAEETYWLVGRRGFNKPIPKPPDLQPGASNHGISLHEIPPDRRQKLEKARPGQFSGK", "assay": "fluorescence"}, "GCAP-2 [4]": {"molecular_target": "T1, GCAP-2 (Bos taurus, UniProt P51177)", "T1 construct": "made in house; host or cells: E. coli BL21 (DE3), vector pET-11a, co-expressed with yeast N-myristoyltransferase I (pBB131)", "T1 sequence (P51177 1-204)": "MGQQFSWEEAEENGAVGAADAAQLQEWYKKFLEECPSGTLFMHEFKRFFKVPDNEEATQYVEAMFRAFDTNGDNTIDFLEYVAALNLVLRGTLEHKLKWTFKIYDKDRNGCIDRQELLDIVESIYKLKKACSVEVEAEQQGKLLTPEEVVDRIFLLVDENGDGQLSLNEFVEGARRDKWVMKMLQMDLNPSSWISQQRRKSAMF", "assay": "Surface plasmon resonance (SPR), GCAP-2/ROS-GC peptide interaction", "format": "binding, bovine"}, "GCAP-2 [5]": {"molecular_target": "T1, GCAP-2", "assay": "Fluorescence spectroscopy titration of ROS-GC peptides to GCAP-2", "set-up": "species or system bovine", "conditions": "excitation 280 nm, emission 350 nm, 20 mM HEPES pH 7.5, 20°C, calcium ~2 μM, read-out: KD1 (first binding event)", "procedure": "Fluorescence measurements were carried out with a Jasco Spectrofluorometer FP-8200, equipped with a Jasco MCB-100 Mini Circulation Bath (20°C, xenon lamp, data interval 0.5 nm, accumulation number 3). The excitation wavelength was 280 nm, fluorescence emission was recorded at 350 nm to exclude self-fluorescence of non-bound peptide. […] As a negative control, separate recordings were performed with N-acetyl-L-tryptophanamide or N-acetyl-L-tyrosinamide, respectively.\nA wavelength of 350 nm was chosen to rule out that changes in fluorescence originate from an increased concentration of non-bound peptide."}}, "note": "No end group written: not given here.", "data": [{"substance": "ROS-GC1 peptide 1 (aa 965-981), postulated GCAP-2 binding motif", "values": [{"measurement": "KD1 (first binding event)", "setting": "[1]", "value": 4.2, "unit": "µM"}, {"measurement": "KD2 (second binding event)", "setting": "[1]", "value": 244, "unit": "µM"}, {"measurement": "Kd", "setting": "[2]", "value": 1.12, "unit": "µM"}]}, {"substance": "GCAP-2 (from UniProt P51177)", "values": [{"measurement": "Kd", "setting": "[3]", "value": 244, "unit": "µM"}]}, {"substance": "ROS-GC1 peptide 2 (aa 942-981), N-terminal extension of peptide 1 with a part of the catalytic domain", "values": [{"measurement": "KD1 (first binding event; set by extrapolation)", "setting": "[1]", "value": 1, "unit": "µM"}, {"measurement": "Kd", "setting": "[2]", "value": 3, "unit": "µM"}]}, {"substance": "YRIHVNRSTVQILSALN [Peptide 1]", "values": [{"measurement": "Kd", "setting": "GCAP-2 [4]", "value": 2.36, "unit": "µM"}, {"measurement": "Kd", "setting": "GCAP-2 [5]", "value": 4.2, "unit": "µM"}]}]}
